{"source": "paper PMC4622073", "about": "(mAbs, 2014)", "key": {"[1]": {"molecular_target": "T1, biotinylated mST2-Fc fusion protein (mouse, UniProt P14719 27-332, biotin (site not stated))", "T1 sequence": "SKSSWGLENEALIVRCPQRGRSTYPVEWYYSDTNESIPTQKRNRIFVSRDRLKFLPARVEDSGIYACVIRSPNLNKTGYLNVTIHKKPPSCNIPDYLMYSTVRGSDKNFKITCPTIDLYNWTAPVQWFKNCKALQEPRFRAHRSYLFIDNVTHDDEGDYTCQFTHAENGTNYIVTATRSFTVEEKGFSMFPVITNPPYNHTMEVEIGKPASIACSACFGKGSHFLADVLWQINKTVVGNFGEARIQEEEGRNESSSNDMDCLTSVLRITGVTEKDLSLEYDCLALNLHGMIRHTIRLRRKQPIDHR", "experiment": "AlphaScreen or HTRF"}, "[2]": {"molecular_target": "T2, mST2-Fc fusion protein (unlabelled) (mouse, UniProt P14719 27-332)", "T2 sequence": "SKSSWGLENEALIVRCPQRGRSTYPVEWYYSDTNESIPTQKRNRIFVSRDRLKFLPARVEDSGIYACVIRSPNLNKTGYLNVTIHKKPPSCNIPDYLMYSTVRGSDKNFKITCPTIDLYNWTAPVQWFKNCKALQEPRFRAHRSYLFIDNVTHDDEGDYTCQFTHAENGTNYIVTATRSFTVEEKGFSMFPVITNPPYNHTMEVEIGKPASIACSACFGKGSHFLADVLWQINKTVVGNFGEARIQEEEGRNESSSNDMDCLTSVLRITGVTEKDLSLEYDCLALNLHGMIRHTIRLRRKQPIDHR", "experiment": "AlphaScreen or HTRF"}}, "data": [{"binder": "mouse interleukin-33 (mIL-33), amino acids 97-266, FLAG 10His tagged (ligand) SIQAFAASVDTLSIQGTSLLTQSPASLSTYNDQSVSFVLENGCYVINVDDSGKDQEQDQVLLRYYESPCPASQSGDGVDGKKLMVNMSPIKDTDIWLHANDKDYSVELQRGDVSPPEQAFFVLHKKSSDFVSFECKNLPGTYIGVKDNQLALVEEKDESCNNIMFKLSKI", "values": [{"measurement": "binding result", "setting": "[1]", "result": "binds"}, {"measurement": "binding result", "setting": "[2]", "result": "binds"}]}]}
